The assay has as its target FRET-GATE-16 (human) (UniProt P60520).

Chain of FRET-GATE-16 (human) (P60520 whole entry): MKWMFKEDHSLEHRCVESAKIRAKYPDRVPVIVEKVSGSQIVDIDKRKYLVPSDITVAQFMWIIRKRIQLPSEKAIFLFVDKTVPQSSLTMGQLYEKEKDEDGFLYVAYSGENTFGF

On to “Atg4A (from UniProt Q8WYN0 1-398) (enzyme)”, for which the catalytic efficiency (kcat/KM) of cleavage, FRET-based assay, 37°C, Buffer B stood at 1310 mol^−1S^−1.

These data come from publication PMC3337841.
